Source: patent US20230250190A1 (published 2023)
Numbering of substitutions follows the chain as printed.

T1: T4 (Tn-MUC1) (PAPGSTAPPAHGVT(α-GalNAc)SAPDTRPAPG-OH)
T1 peptide: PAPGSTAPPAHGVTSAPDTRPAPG

T2: T9 (Tn-MUC1) (PAPGSTAPPAHGVT(α-GalNAc)S(α-GalNAc)APDTRPAPG-OH)
T2 peptide: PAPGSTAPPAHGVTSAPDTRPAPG

T3: T11 (Tn-MUC1) (PAPGSTAPPAHGVT(α-GalNAc)SAPDT(α-GalNAc)RPAPG-OH)
T3 peptide: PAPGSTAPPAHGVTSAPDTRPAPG

T4: T8 (Tn-MUC1) (PAPGST(α-GalNAc)APPAHGVTSAPDT(α-GalNAc)RPAPG-OH)
T4 peptide: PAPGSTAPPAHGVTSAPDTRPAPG

B1: 182 (antibody, V domains shown)
VH: QVQLVQSGAEVKKPGASVKVSCKASGYSFTYSYIQWVRLAPGRGLEWMGVINPYDGSTDYAQKFQGRVTLTRDTSTTTVYMELSSLTSEDTAVYYCARDFMIGYVVFDYWGQGTLVTVSS
B2: 21 (antibody, V domains shown)
VH: QVQLVQSGAEVRKPGASVKFSCKASGYSFTHYYVHWVRQAPGQGLEWMGVINPFDSSTNYARKFQGRVTMTRDTSTTTVYMDLSSLRSEDTAVYFCARDAMEGDSYFDYWGQGTLVTVSS
B3: 53 (antibody, V domains shown)
VH: QVQLVQSGAEVKKPGASMTVSCKTSGYTFISYYIHWLRQAPGQGLEWLGVINPFGGATNYAQKFQGRVTMTRDTSTITVYMELSSLRSEDTAVYYCARDAMGGDSHFDFWGQGTLVTVSS
B4: 41 (antibody, V domains shown)
VH: B3 VH with K13E, V20L, Y32N, F109Y
B5: 62 (antibody, V domains shown)
VH: QVQLVESGAEVKKPGASVKVSCKASGYSFTSYYIQWVRQAPGQGLEWLAVINPIDGSTNYAQKFQGRVTVTRDTSTSTVYMELSSLRSEDTAVYYCARDYMRGFVVFDYWGQGTLVTVSS
B6: 66 (antibody, V domains shown)
VH: QVQLVQSGAEVKKPGASVRVSCKASGYTFTNYYIHWVRQAPGHGLTWMGVINPFDSSTDYAQKFQGRVTMTRDTSTSTVYMDLSSLRSEDTAVYYCARDYMRGHVVFDYWGQGTLVTVSS
B7: 190 (antibody, V domains shown)
VH: B6 VH with R19K, T28A, Y60F, V68L, Y109N
B8: 94 (antibody, V domains shown)
VH: B6 VH with A16S, R19K, T30N, N31S, H43Q, S56G, H104Y, Q112R
B9: 17 (antibody, V domains shown)
VH: QVQLVQSGAEVKKPGASVRVSCKASGYPFINYYIQWVRQAPGQGLEWMGVVNPYDGSTNYAQKFQGRVSITRDASTSTVFMELNSLRSEDTAVYYCARDSMLGHVIFDFWGQGTLVTVSS
B10: 142 (antibody, V domains shown)
VH: B9 VH with R19M, V20L, P28I, I30T, N31S, A74T
B11: 118 (antibody, V domains shown)
VH: QVQLVQSGAEVKKPGASVKVSCKASGYTFTNYYIQWVRQAPGQGLEWMGVINPYDGSTNYAQRFQGKITLTRDTSTTTVYMELSSLGSEDTAVYYCARDYMIGYVVFDYWGQGTMVTVSS
B12: 110 (antibody, V domains shown)
VH: B11 VH with V11M, Q35H, R63K, K67R, I68V, G87R, Y109F, M115L
B13: 114 (antibody, V domains shown)
VH: B11 VH with V11M, K19T, K67R, I68V, S75T, Y80N, S85G, G87R, Y109F, M115L
B14: 130 (antibody, V domains shown)
VH: QVQLVQSGAEVKKPGASVRVSCKASGYTFINYYLQWVRQAPGQGLEWMGTINPFDGSTHYAQKFQGRVTLTRDTSTSTVYMELNSLRSDDTAVYYCARDYMIGYVLFDYWGQGTLVTVSS
B15: 126 (antibody, V domains shown)
VH: QVQLVQSGAEVKKPGASVKVSCKASGYTFNRYYLHWVRQAPGQGLEWMGVINPYDGSTNYAQKFRGRVTMTRDTSTNTVYMELSSLRSEDTAVYFCARDAMEGDSYFDNWGQGTTVTVSS
B16: 186 (antibody, V domains shown)
VH: B15 VH with L34I, V68I, E82D, F107L, Q112R, T115L
B17: 122 (antibody, V domains shown)
VH: B15 VH with Q1E, V5L, Q6E, L34I, N59D, G66D, V68I, E82D, Q112R, T115L
B18: 166 (antibody, V domains shown)
VH: B15 VH with Q6E, L34I, Y54S, V68I, T78I, E102G, T115L
B19: 49 (antibody, V domains shown)
VH: QVQLVESGAEVKKPGASVKVSCKASGYTFTRYYLHWVRQAPGQGLEWMGVINPYGGATNYAQKFQGRVTLTRDTSTSTVYMELNSLRSEDTAVYFCARDAMEGNSYFDHWGPGTLVTVSS
B20: 134 (antibody, V domains shown)
VH: QVQLVQSGAEVKKPGASVEVSCKASGYTFINYYIHWVRQAPGQGLEWMGVINPFDGSTNYAQKFQGRVTVTRDTSTSTVFLDLSSLRPEDTAVYYCARDSMIGYVLFDYWGQGTLVTVSS
B21: 138 (antibody, V domains shown)
VH: B14 VH with L70M, N84S, D89E, Y100S
B22: 70 (antibody, V domains shown)
VH: QVQLVQSGAEVKKPGASVKVSCKASGYAFPNYYIHWVRQAPGQGLEWMGVINPYGGSTNYAQKFQGRVTMTRGTSTSTVYLELSSLRSEDTAVYYCARDAMKGDSFFDYWGQGTLVTVSS
B23: 202 (antibody, V domains shown)
VH: QVQLVQSGAEVKNPGASVKFSCKASGYTFINYYLQWLRQAPGQGLEWMGTINPFDGSTSYAQNFQGRVTMTRDTSSTTVYMELNSLKSEDTAVYYCARDSMIGYVLFDSWGQGTLVTVSS
B24: 154 (antibody, V domains shown)
VH: QVQLVQSGAEVKKSGASVKVSCKASGYIFTSYYIQWVRQAPGQGLEWMGVINPFDGSTDYAQKFQGRVTVTRDTSTTTVFMELSSLRSEDTAVYYCARDNMLGYVLFDYWGQGTLVTVSS
B25: 158 (antibody, V domains shown)
VH: B24 VH with S14P, I28T, I34M, Q35H, D59N, S75A, E82D
B26: 98 (antibody, V domains shown)
VH: QVQLVQSGAEVKKPGASVKVSCKASGYTFTSYYIQWLRQAPGQGLEWMGVINPTGGATNYAQKFQGRVTMTRETSTSMVHMELSSLRSEDTAVYYCARDYMRGYVVFDYWGQGTLVTVSS

Target: T1, T4 (Tn-MUC1)
Assay: glycopeptide array

| Binder | EC50 |
| --- | --- |
| B1 | 0.093 mg/L |
| B2 | 0.051 mg/L |
| B3 | 0.112 mg/L |
| B4 | 0.1 mg/L |
| B5 | 0.042 mg/L |
| B6 | 0.11 mg/L |
| B7 | 0.102 mg/L |
| B8 | 0.034 mg/L |
| B9 | 0.098 mg/L |
| B10 | 0.089 mg/L |
| B11 | 0.097 mg/L |
| B12 | 0.127 mg/L |
| B13 | 0.087 mg/L |
| B14 | 0.125 mg/L |
| B15 | 0.143 mg/L |
| B16 | 0.118 mg/L |
| B17 | 0.108 mg/L |
| B18 | 0.108 mg/L |
| B19 | 0.102 mg/L |
| B20 | 0.11 mg/L |
| B21 | 0.116 mg/L |
| B22 | 0.127 mg/L |
| B23 | 0.104 mg/L |
| B24 | 0.13 mg/L |
| B25 | 0.095 mg/L |
| B26 | 0.116 mg/L |

Target: T2, T9 (Tn-MUC1)
Assay: glycopeptide array

| Binder | EC50 |
| --- | --- |
| B1 | 0.085 mg/L |
| B2 | 0.058 mg/L |
| B3 | 0.126 mg/L |
| B4 | 0.113 mg/L |
| B5 | 0.045 mg/L |
| B6 | 0.123 mg/L |
| B7 | 0.12 mg/L |
| B8 | 0.033 mg/L |
| B9 | 0.102 mg/L |
| B10 | 0.091 mg/L |
| B11 | 0.102 mg/L |
| B12 | 0.139 mg/L |
| B13 | 0.076 mg/L |
| B14 | 0.117 mg/L |
| B15 | 0.153 mg/L |
| B16 | 0.132 mg/L |
| B17 | 0.1 mg/L |
| B18 | 0.095 mg/L |
| B19 | 0.12 mg/L |
| B20 | 0.095 mg/L |
| B21 | 0.096 mg/L |
| B22 | 0.151 mg/L |
| B23 | 0.119 mg/L |
| B24 | 0.106 mg/L |
| B25 | 0.088 mg/L |
| B26 | 0.102 mg/L |

Target: T3, T11 (Tn-MUC1)
Assay: glycopeptide array

| Binder | EC50 |
| --- | --- |
| B1 | 0.11 mg/L |
| B2 | 0.071 mg/L |
| B3 | 0.131 mg/L |
| B4 | 0.134 mg/L |
| B5 | 0.097 mg/L |
| B6 | 0.138 mg/L |
| B7 | 0.122 mg/L |
| B8 | 0.04 mg/L |
| B9 | 0.126 mg/L |
| B10 | 0.126 mg/L |
| B11 | 0.143 mg/L |
| B12 | 0.164 mg/L |
| B13 | 0.09 mg/L |
| B14 | 0.14 mg/L |
| B15 | 0.195 mg/L |
| B16 | 0.213 mg/L |
| B17 | 0.133 mg/L |
| B18 | 1.68 mg/L |
| B19 | 0.132 mg/L |
| B20 | 0.131 mg/L |
| B21 | 0.123 mg/L |
| B22 | 0.161 mg/L |
| B23 | 0.142 mg/L |
| B24 | 0.196 mg/L |
| B25 | 0.235 mg/L |
| B26 | 0.395 mg/L |

Target: T4, T8 (Tn-MUC1)
Assay: glycopeptide array

| Binder | EC50 |
| --- | --- |
| B1 | 0.098 mg/L |
| B2 | 0.061 mg/L |
| B3 | 0.122 mg/L |
| B4 | 0.114 mg/L |
| B5 | 0.07 mg/L |
| B6 | 0.123 mg/L |
| B7 | 0.108 mg/L |
| B8 | 0.033 mg/L |
| B9 | 0.104 mg/L |
| B10 | 0.108 mg/L |
| B11 | 0.142 mg/L |
| B12 | 0.153 mg/L |
| B13 | 0.085 mg/L |
| B14 | 0.116 mg/L |
| B15 | 0.168 mg/L |
| B16 | 0.203 mg/L |
| B17 | 0.121 mg/L |
| B18 | 1.85 mg/L |
| B19 | 0.124 mg/L |
| B20 | 0.113 mg/L |
| B21 | 0.106 mg/L |
| B22 | 0.149 mg/L |
| B23 | 0.125 mg/L |
| B24 | 0.162 mg/L |
| B25 | 0.242 mg/L |
| B26 | 0.263 mg/L |
